{"source": "patent US7247438", "binders": {"B1": {"name": "biotin-YVADamk (peptide)", "peptide": "YVAD", "modifications": "not checked"}}, "target": "T1, purified, recombinant Yama/caspase-3, P42574", "T1 chain": "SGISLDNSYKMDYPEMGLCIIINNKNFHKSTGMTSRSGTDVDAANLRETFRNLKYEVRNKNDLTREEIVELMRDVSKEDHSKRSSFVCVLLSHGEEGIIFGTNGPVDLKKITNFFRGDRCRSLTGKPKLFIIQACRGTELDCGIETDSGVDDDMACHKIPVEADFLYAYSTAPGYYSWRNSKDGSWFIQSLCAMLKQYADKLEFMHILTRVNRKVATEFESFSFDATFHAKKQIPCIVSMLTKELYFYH", "test": "recombinant enzyme labelled with biotinylated inhibitor, blot", "details": "remark: other sources report otherwise"}
{"binder": "B1", "values": [{"measurement": "fold more enzyme needed for detection", "value": 100, "unit": "times"}]}
